Experimental data published in patent publication USRE41461E1, “Purification, composition and specificity of Heparinase I, II, and III from Flavobacterium heparinum” (Massachusetts Institute of Technology, priority 1992, dated 2010).

What was measured:
[1] = Heparin lyase activity assay (change of absorbance at 232 nm), heparin as substrate; type: biochemical, porcine
Protocol: (§1) The spectrophotometer was adjusted to the optimum temperature of the particular lyase being assayed. […] A measured quantity of lyase was added, bringing the final volume to 400 μl and the cuvette was gently mixed. The microcuvette was then immediately returned to the spectrophotometer and the change of absorbance at 232 nm was measured at 10 seconds intervals over 3 min. […] The specific activity was then calculated by dividing the micromoles of product produced per minute by the milligrams of protein in the cuvette. […] G., and Linhardt, R. J. (1989) Carbohydr. Res. 190, 219-233. Protein concentration was measured by the Bradford assay, Bradford, M. M. (1976) Anal. Biochem. 72, 248-254, based on a bovine serum albumin standard curve. […] The activities of each lyase (I acting on heparin, II acting on both heparin and heparan sulfate, and III acting on heparan sulfate) were then determined at different pH values. The buffer giving optimum activity for each heparin lyase was selected by testing buffers with buffering capacity near the pH optima calculated in the previous experiments. These buffers were: Tris-HCl, sodium phosphate, HEPES, MOPS, TES, and BTP-CHl. […] The heparin lyase assay solutions were made by diluting enzyme in 50 mM sodium phosphate buffer adjusted to the appropriate pH as previously described. Heparin lyase activity was determined in each buffer. Activity was assayed both immediately after addition to each buffer and following incubation for 24 h at 37° C. The salt concentration for optimum activity was investigated. Sodium chloride, potassium chloride, and sodium and potassium acetate were used to differentiate between ionic strength and specific ion affects. […] The temperature was adjusted in a temperature-regulated spectrophotometer and equilibrated for 10 min before the assay was started. Michaelis-Menten constants were determined using the optimized conditions. The final absorbance value for total depolymerization was divided by 20 to find a value that represented 5% reaction completion. The purified lyase preparations were diluted so that 5% of total depolymerization would be reached only at the end of a 3-min assay. The reaction velocities at specific molar concentrations for each lyase and their substrates were used for kinetic analysis using EZ-FIT hyperbolic curve-fitting program of […]. (1988) Anal. Biochem. 174, 437-447). Substrate solutions were prepared from 50 mg/ml heparin and 40 mg/ml for heparan sulfate stock solutions. […] The amount of purified lyase used was sufficient for complete depolymerization of heparin or heparan sulfate substrates within 30 min. The initial rate of depolymerization of each polysaccharide was measured, the reaction was then continued for 24 h, and the final level of polysaccharide depolymerization was assessed by measuring the final absorbance at 232 nm and expressed as percent activity.

[2] = Stability toward storage, freeze thawing and lyophilization; type: physicochemical; settings: for activity retained: absence of excipient
Protocol: […] […] These lyase solutions were then divided into 3 equal aliquots, and one of each was subjected to either freeze thawing, lyophilization, or retained as a control in an ice bath. The activities of heparin lyases I-III were determined in the presence and absence of excipients after: 1) brief storage at 4° C.; 2) freezing at −70° C. and thawing; and 3) −70° C. freezing, lyophilization, and reconstituting with an equal volume of cold water.

[3] = Temperature stability of lyase activity; type: physicochemical; settings: 30° C., protein 650 ng/ml
Protocol: Lyase assay stock solutions were prepared in the appropriate buffer and placed in water baths at the following temperatures: heparin lyase I at 30° C., heparin lyase II at 35° C., and heparin lyase III at both 35° and 40° C. […]

[4] = Heparin lyase activity: effect of divalent metals and added salt, substrate specificity (each lyase on its substrates); type: biochemical
Protocol: The spectrophotometer was adjusted to the optimum temperature of the particular lyase being assayed. A 700 μl quartz microcuvette containing 400 μg of substrate in 50 mM sodium phosphate buffer (containing 100 mM sodium chloride for heparin lyase I) was thermally equilibrated. A measured quantity of lyase was added, bringing the final volume to 400 μl and the cuvette was gently mixed. The microcuvette was then immediately returned to the spectrophotometer and the change of absorbance at 232 nm was measured at 10 seconds intervals over 3 min. The activity was measured from the change of absorbance/unit time using an extinction coefficient of 3800 M^−1 for products. The specific activity was then calculated by dividing the micromoles of product produced per minute by the milligrams of protein in the cuvette. The molecular weights used for heparin, heparan sulfate, and the chondroitin sulfates were 14,000, 20,000 and 25,000, respectively, Rice, K. G., and Linhardt, R. J. (1989) Carbohydr. Res. 190, 219-233. Protein concentration was measured by the Bradford assay, Bradford, M. M. (1976) Anal. Biochem. 72, 248-254, based on a bovine serum albumin standard curve.
BTP-HCl buffer (50 mM) was prepared containing either 10 mM calcium chloride, 10 μM or 1 mM copper (II) chloride, 10 μM and 1 mM mercury (II) chloride, and 1 mM zinc (II) chloride. Each solution was adjusted to the optimum pH for the lyase being tested, and the activity of the heparin lyases was measured in the presence and absence of divalent metals.
The salt concentration for optimum activity was investigated. Sodium chloride, potassium chloride, and sodium and potassium acetate were used to differentiate between ionic strength and specific ion affects. Added salt concentrations varied between 0 and 500 mM and were prepared in 50 mM sodium phosphate buffer after which the pH was adjusted to each enzyme's optimum and the heparin lyase activity was measured.
Each heparin lyase was added to a solution of complex polysaccharides (1 mg/ml) under optimized assay conditions, and the reaction was monitored at 232 nm for 30 min. The amount of purified lyase used was sufficient for complete depolymerization of heparin or heparan sulfate substrates within 30 min. The initial rate of depolymerization of each polysaccharide was measured, the reaction was then continued for 24 h, and the final level of polysaccharide depolymerization was assessed by measuring the final absorbance at 232 nm and expressed as percent activity.

[5] = Heparin lyase activity assay (change of absorbance at 232 nm), heparan sulfate as substrate; type: biochemical; settings: final level of depolymerization, 24 h
Protocol: as §1

[6] = Activity remaining after incubation in buffers for 24 h at 37° C.; type: physicochemical; settings: each of six buffers
Protocol: The buffer giving optimum activity for each heparin lyase was selected by testing buffers with buffering capacity near the pH optima calculated in the previous experiments. These buffers were: Tris-HCl, sodium phosphate, HEPES, MOPS, TES, and BTP-CHl. Each buffer was prepared at 50 mM, and its pH was adjusted with hydrochloric acid or sodium hydroxide to 6.9 for heparin lyase II acting on heparin, 7.15 for heparin lyase I, 7.3 for heparin lyase II acting on heparan sulfate, and 7.6 for heparin lyase III. The heparin lyase assay solutions were made by diluting enzyme in 50 mM sodium phosphate buffer adjusted to the appropriate pH as previously described. Heparin lyase activity was determined in each buffer. Activity was assayed both immediately after addition to each buffer and following incubation for 24 h at 37° C.

[7] = Isoelectric focusing on agarose gel; type: physicochemical; settings: agarose IEF
Protocol: IEF gel electrophoresis was run on pre-cast agarose gels (85×100 mm). Two electrode wicks were wetted with 1M phosphoric acid (anolyte) and 1M sodium hydroxide (catholyte). Electrophoresis was at 5 watts for 5 min, then at 10 watts for 1 h until the voltage was constant at 1200 V. The gel was immediately fixed in 15% aqueous trichloroacetic acid, blotted and rinsed with water, dried overnight, stained by using Coomassie G-250, and destained.

[8] = cited from earlier work

B1: Heparin lyase I: heparin lyase I (heparinase, EC 4.2.2.7) purified to homogeneity from Flavobacterium heparinum (protein, UniProt Q05819 22-384, looked up)
Heparin lyase I: QQKKSGNIPYRVNVQADSAKQKAIIDNKWVAVGINKPYALQYDDKLRFNGKPSYRFELKAEDNSLEGYAAGETKGRTELSYSYATTNDFKKFPPSVYQNAQKLKTVYHYGKGICEQGSSRSYTFSVYIPSSFPDNATTIFAQWHGAPSRTLVATPEGEIKTLSIEEFLALYDRMIFKKNIAHDKVEKKDKDGKITYVAGKPNGWKVEQGGYPTLAFGFSKGYFYIKANSDRQWLTDKADRNNANPENSEVMKPYSSEYKTSTIAYKMPFAQFPKDCWITFDVAIDWTKYGKEANTILKPGKLDVMMTYTKNKKPQKAHIVNQQEILIGRNDDDGYYFKFGIYRVGNSTVPVTYNLSGYSETAR
added salt concentration (ionic strength) for optimum activity ([1]; 0-500 mM salt in 50 mM sodium phosphate buffer): 100 mM | Unit/mg (specific activity) ([1]; final GPC-HPLC purification step, acting on heparin): 130 Unit/mg | average number of sites acted at in the heparin polymer ([1]; final level of depolymerization, 24 h): 7 sites | initial activity in six buffers (Tris-HCl, sodium phosphate, HEPES, MOPS, TES, BTP-HCl) ([1]; heparin, 50 mM buffer at optimum pH): reduced activity in MOPS, TES, and HEPES | temperature for maximum activity ([1]; heparin, 50 mM sodium phosphate at optimum pH, 15-55° C.): 35 °C | Km ([1]; heparin, I: 30° C., pH 7.15, 100 mM sodium chloride, II: 35° C., pH 7.3, value ± standard error, read-out: Km(app)): 17.8 ± 1.5 µM | Vmax ([1]; heparin, optimized conditions, value ± standard error): 219 ± 3.48 μmol/min mg protein | pH optimum for activity ([1]; on heparin): 7.15 | specific activity ([1]; purified lyase, toward heparin): 130 units/mg | activity retained ([2]; after a single freeze-thawing): 45% | activity retained ([2]; after freeze-drying): 25% | activity retained ([2]; stored at 4° C.): 50% | retention of activity ([2]; addition of 2.0 mg/ml BSA): greater than 85% | retention of activity ([2]; addition of 5% lactose): 40-80% | time in which 80% of activity was lost [3]: 5 h | substrates acted on [4]: act on both heparin and heparan sulfate | effect of mercury on activity ([4]; 10 μM mercury (II) chloride): markedly reduced | effect of copper on activity ([4]; 1 mM copper (II) chloride): markedly reduced | effect of mercury on activity ([4]; 1 mM mercury (II) chloride): markedly reduced | effect of zinc on activity ([4]; 1 mM zinc (II) chloride): slightly reduced | effect of calcium on activity (increase) ([4]; 10 mM calcium chloride, 50 mM BTP-HCl): 30% | effect of added salt on activity ([4]; increasing salt concentration, 0-500 mM): increased activity | average number of sites acted at in the heparan sulfate polymer [5]: 5 sites | activity after incubation, % of initial value [6]: 1-20% | pI (isoelectric point) [7]: 9.1-9.2 | pH optimum (reported) ([8]; Yang et al. (1985), Linker and co-workers, assay times up to 6 h): 6.5 | Vmax (reported) ([8]; literature): 19.7 μmol/min/mg protein
